This data set in a line: collision cross section of unmodified peptide (TIMS, N2, iRT-aligned); higher = larger / more extended gas-phase ion. The essentials: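 Synthetic peptide pools (~100 fmol/µL in 2% acetonitrile/0.1% formic acid, iRT standard spiked 1:40) were separated on a 120-min nanoflow C18 gradient at 60 °C. They were analysed on a timsTOF Pro/HT (dda-PASEF, nitrogen, ~2.4 mbar) and identified with MaxQuant. 1/K0 was calibrated with three reference ions and aligned run-wise to the median iRT peptide deviation. Collision cross section came from the Mason-Schamp equation, averaging 1–3 technical replicates of the most abundant feature per charge state.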

± gives the standard deviation.

From the supplement of paper PMC10598134 come the findings set out here.

In turn, VQGGALEDSQLVAGVAFKK returned a collision cross section (charge state: 2) of 499.26 ± 4.6 Å² and a collision cross section (charge state: 3) of 546.92 ± 0.83 Å².
On to DYGNSPLHR, for which the collision cross section was 339.65 ± 0.48 Å² (charge state: 2) and 430.38 ± 2 Å² (charge state: 3).
As to PANEKATDDYHYEK, the collision cross section is 416.54 ± 2.6 Å² (charge state: 2) and 493.57 ± 4.5 Å² (charge state: 3).
As to VFSIISSEKELK, the collision cross section by setting is: (charge state: 2) 413.02 ± 1.5 Å²; (charge state: 3) 485.92 ± 5.3 Å².
Regarding LGSPSGKTGTCR, the collision cross section is reported as 383.86 ± 1.2 Å² (charge state: 2) and 458.08 ± 4.7 Å² (charge state: 3).
The substance GVEAVGSYAENQR returned a collision cross section (charge state: 2) of 378.71 ± 0.16 Å² and a collision cross section (charge state: 3) of 463.38 ± 1.1 Å².
Regarding GIGRGTVQALHATGAR, the collision cross section reads like this: (charge state: 2) 428.55 Å²; (charge state: 3) 501.79 ± 0.73 Å².
Turning to IHVQSSSDSSDEPAEKR, the collision cross section by setting is: (charge state: 2) 455.51 ± 2.8 Å²; (charge state: 3) 536.3 ± 1.4 Å².
Regarding AAQASDLEKIHLDEK, the collision cross section reads like this: (charge state: 2) 447.85 ± 1.2 Å²; (charge state: 3) 506 ± 5.5 Å².
For IQTKAGEATVK, in that order: 361.35 ± 0.94 Å² and 457.37 ± 4.1 Å².
With VTLEVGKVIQQGR, the collision cross section is recorded as 428.45 ± 2.5 Å² (charge state: 2) and 496.48 ± 2.3 Å² (charge state: 3).
On the same counts, the results for GEGGFGGRGGGR are 340.19 ± 0.38 Å² and 426.14 ± 4 Å².
Turning to GATVTRGVPPPPTVR, the collision cross section turned out to be 421.15 Å² (charge state: 2) and 511.54 ± 2 Å² (charge state: 3).
For the substance LELAQYR, the collision cross section (charge state: 2) came out at 324.63 ± 0.15 Å².
As to GRGGAESHTFK, the collision cross section (charge state: 2) was determined as 353.4 ± 0.58 Å² and the collision cross section (charge state: 3) worked out at 440.9 ± 5.6 Å².
As to YGRGQLNYPLPDFSK, the collision cross section was 433.52 Å² (charge state: 2) and 510.01 ± 10 Å² (charge state: 3).
For the substance GSLEKGSPEDK, the collision cross section (charge state: 2) was determined as 350.53 ± 1.5 Å² and the collision cross section (charge state: 3) is 434.36 ± 3.6 Å².
The substance VYSLFLDESR registered a collision cross section (charge state: 2) of 376.99 ± 0.94 Å².
In turn, PDTQYTGR came in with a collision cross section (charge state: 2) of 315.91 ± 0.73 Å².
For the substance IHNAENIQPGEQKYEYK, the collision cross section was found to be 475.76 ± 2.4 Å² (charge state: 2) and 534.89 ± 9.6 Å² (charge state: 3).
SGYSSPGSPGTPGSR yielded a collision cross section (charge state: 2) of 379.95 ± 0.14 Å².
LGVATVAKGVCGACK gave a collision cross section (charge state: 2) of 433.92 ± 2.8 Å² and a collision cross section (charge state: 3) of 487.58 ± 4.2 Å².
For VDVEVPDVSLEGPEGKLK, in that order: 461.73 ± 2.9 Å² and 514.03 ± 36 Å².
For VNIGQGSHPQKVK, in that order: 416.89 ± 2.1 Å² and 469.44 ± 3.7 Å².
Consider DASTLQSQKAEGTGDAK, for which the collision cross section is reported as 442.88 ± 2.3 Å² (charge state: 2) and 495.18 ± 2.5 Å² (charge state: 3).
The substance DYSAPVNFISAGLKK showed a collision cross section (charge state: 2) of 443.09 ± 2.3 Å² and a collision cross section (charge state: 3) of 512.68 ± 2.7 Å².
THLAPYSDELR: the collision cross section reads like this: (charge state: 2) 381.48 ± 0.47 Å²; (charge state: 3) 446.52 ± 1.7 Å².
Where the note is “charge state: 2”, TLTPASSPVSSPSK gave a collision cross section of 389.93 ± 0.025 Å².
On to GFCFITYTDEEPVKK, for which the collision cross section was found to be 461.17 ± 2.5 Å² (charge state: 2) and 509.46 ± 2.1 Å² (charge state: 3).
For the substance YTAILNQIPSHSSSIR, the collision cross section (charge state: 2) was found to be 475.98 ± 0.82 Å² and the collision cross section (charge state: 3) came out at 510.98 ± 3.8 Å².
Regarding LLRGVGGSHGR, the collision cross section amounted to 358.18 ± 0.097 Å² (charge state: 2) and 450.84 ± 3.9 Å² (charge state: 3).
The substance TAGSSGVTAGRPRPTAR yielded a collision cross section (charge state: 3) of 538.39 ± 0.86 Å².
With LPEYPQVDDLLLR, the collision cross section (charge state: 2) is given as 420.84 ± 0.76 Å².
For the substance TSSEASVSSSVAK, where the note is “charge state: 2”, the collision cross section was 370.17 ± 0.67 Å².
In the case of FRSGNYR, the collision cross section worked out at 328.09 ± 0.7 Å² (charge state: 2) and 402.54 ± 6.1 Å² (charge state: 3).
On to GGFQNRGGGSGGGGNYR, for which the collision cross section by setting is: (charge state: 2) 412.29 Å²; (charge state: 3) 474.43 ± 1.4 Å².
DSRGGGGNFGPGPGSNFR came in with a collision cross section (charge state: 3) of 474.13 ± 0.75 Å².
As for SITHSTVGSKGEK, the collision cross section runs as follows: (charge state: 2) 404.31 ± 1.8 Å²; (charge state: 3) 464.75 ± 3.9 Å².
With VDGDTQTTVEK, the collision cross section (charge state: 2) is 367.05 ± 2.3 Å².
In the case of SLYASSPGGVYATR, the collision cross section is reported as 405.12 ± 0.66 Å² (charge state: 2) and 482.72 ± 0.22 Å² (charge state: 3).
For SRGAIISQYYNR, in that order: 400.77 ± 1.6 Å² and 465.8 ± 0.66 Å².
As to VETTVTSLKTK, the collision cross section is, setting by setting: (charge state: 2) 379.41 ± 0.92 Å²; (charge state: 3) 459.8 ± 3.1 Å².
For SPPLPEHQKIPCNSAEPK, the collision cross section (charge state: 3) is 527.39 ± 1.3 Å².
Regarding AAHGRGALAEAAR, the collision cross section is, setting by setting: (charge state: 2) 390.08 ± 0.35 Å²; (charge state: 3) 476.13 ± 1.3 Å².
Consider GDTGLPGPQGIPGGVGSPGR, for which the collision cross section runs as follows: (charge state: 2) 429.26 ± 1 Å²; (charge state: 3) 497.26 ± 35 Å².
STGLELETPSLVPVKK: the collision cross section turned out to be 457.57 ± 5.2 Å² (charge state: 2) and 520.54 ± 2.5 Å² (charge state: 3).
In the case of ASCLYGQLPK, under “charge state: 2”, the collision cross section was determined as 363.85 ± 0.6 Å².
In the case of TTLTSDESVKDHTTAGR, the collision cross section (charge state: 3) came to 528.1 ± 0.21 Å².
With PLRAASPFR, the collision cross section reads like this: (charge state: 2) 352.16 ± 0.084 Å²; (charge state: 3) 447.55 ± 5.2 Å².
On to TFGKAAGPSLSHTSGGTQSK, for which the collision cross section was 462.76 ± 2.3 Å² (charge state: 2) and 520.05 ± 2.3 Å² (charge state: 3).
In turn, IYELAAGGTAVGTGLNTR registered a collision cross section (charge state: 2) of 443.72 ± 1 Å².
On to ALLQAKASGK, for which the collision cross section is, setting by setting: (charge state: 2) 343.27 ± 1.1 Å²; (charge state: 3) 435.19 ± 4.7 Å².
In turn, VFIGNLNTLVVKK had a collision cross section (charge state: 2) of 421.66 ± 1.2 Å² and a collision cross section (charge state: 3) of 475.82 ± 2 Å².
In turn, MFLSFPTTK gave a collision cross section (charge state: 2) of 348.96 ± 0.14 Å².
Take SAGSVESPSVSSTHR: the collision cross section is, setting by setting: (charge state: 2) 394.4 ± 0.14 Å²; (charge state: 3) 493.72 ± 0.22 Å².
The substance GFALVGVGSEASSKK showed a collision cross section (charge state: 2) of 433.33 ± 1.5 Å² and a collision cross section (charge state: 3) of 506.74 ± 2.3 Å².
The substance GDPGLIGPK yielded a collision cross section (charge state: 2) of 313.62 ± 1.5 Å².
Regarding FNALFAQGNYSEAAK, where the note is “charge state: 2”, the collision cross section was 435.05 ± 0.49 Å².
In the case of TLDEILQEKK, the collision cross section (charge state: 2) is listed as 375.43 ± 1 Å² and the collision cross section (charge state: 3) is recorded as 432.42 ± 3.6 Å².
With EEKPAVTAAPK, the collision cross section by setting is: (charge state: 2) 359.42 ± 0.68 Å²; (charge state: 3) 467.02 ± 0.22 Å².
Regarding LRQQLQAK, the collision cross section reads like this: (charge state: 2) 346.98 ± 0.88 Å²; (charge state: 3) 414.5 ± 11 Å².
